{"source": "paper PMC3720550", "experiment_in_all_cases": "UV-vis", "conditions_in_all_cases": "not stated (1 mM each of sodium phosphate, sodium citrate and sodium borate; 0.1 mM EDTA; no added salt mentioned), Polybuffer: 1 mM each of sodium phosphate, with 0.1 mM EDTA. Starting pH 9.3, titrated with 25 mM HCl., Reduced (DTT-treated, desalted) active-site dithiol form, folded, 10-25 µM protein, the oxidised (diamide) protein served as reference", "key": {"Cys12 [1]": {"molecular_target": "Cys12 (UniProt position 12, YAQPDCPPCVI)"}, "Cys15": {"molecular_target": "Cys15 (UniProt position 15, PDCPPCVIVKE)"}, "Cys12 [2]": {"molecular_target": "Cys12 (UniProt position 12, YTQPDCPPCVI)"}}, "data": [{"substance": "Thioredoxin BC3987 T8A mutant (Bacillus cereus ATCC 14579; T8A)", "values": [{"measurement": "pKa", "setting": "Cys12 [1]", "value": 7.2}]}, {"substance": "Thioredoxin BC3987 (NrdH/Cp9-like small thioredoxin, C-P-P-C active site) (Bacillus cereus ATCC 14579)", "values": [{"measurement": "pKa", "setting": "Cys15", "value": 5.1}, {"measurement": "pKa", "setting": "Cys12 [2]", "value": 7.2}]}]}
